The record followed here is PMC2119884.

Several values for one entry are separate records, joined by “and”; a condition that tells them apart may be missing. Equal entries are not always repeated. Where two headings read alike, the source gives them in different places.

The target in assay [1] is L266D mutant yeast actin (S. cerevisiae) (UniProt P60010). In words: light scattering.
Assay [2] has the same target. In words: sedimentation of F-actin.
The target is the same in assay [3]. In words: light scattering. The source holds these as a separate data set.
Assay [4] has the same target. The assay is described as follows: sedimentation of F-actin. The source holds these as a separate data set.
Assay [5] shares this target. In words: light scattering. The source holds these as a separate data set.
The target is the same in assay [6]. In words: light scattering. This is another data set of the same source.
The target is the same in assay [7]. The assay is described as follows: sedimentation of F-actin. The source holds these as a separate data set.

Consider “L266D mutant yeast actin (from UniProt P60010 1-375) (natural protein)”, for which the elongation rate, times slower than wild-type actin in assay [1] is 2 times and 3 times; in assay [3] it was 2 times and 3 times. Besides, the actin remaining in the supernate (starting concentration 70 µM) in assay [2] worked out at 46.5 µM; in assay [4], 4.6 µM; in assay [7], 11.6 µM. The critical concentration (Cc) for polymerization in assay [3] stood at 1.2 µM; in assay [5], 11 µM; in assay [6], 6.5 µM.
